Consider 1 substance from paper PMC12021427.

For the test, the target named is PS2 S-layer protein of Corynebacterium glutamicum 541 (ATCC-13058) (Corynebacterium glutamicum 541 (ATCC-13058)). Briefly: cryo-EM structure; single particle cryo-EM of S-layer sheets purified from cells with SDS; 50 mM HEPES/NaOH pH 7.5, 150 mM NaCl, 1 mM MgCl2, 2 mM CaCl2; C6 symmetry; 3.1 Å; lattices still intact after 10 mM EDTA or 10 mM EGTA for 2 h.

In turn, “PS2 S-layer protein of Corynebacterium glutamicum 541 (ATCC-13058) (natural protein)” returned a stoichiometry N of 6.

One may read the stoichiometry N as a count of units in the complex or per binding partner.
